Experimental data from patent publication US20240360228A1 (BIOLEGEND, published 2024).
Residue numbers refer to the chain shown, from its start. Blank lines part the entries; values can stand above or below the binder they belong to.

How the values were obtained:
[1] = molecular target: T1, human chemokine (C-C motif) receptor 8 (CCR8) (human, UniProt P51685 1-355); assay: cell-based or functional assay
[2] = molecular target: T1, human chemokine (C-C motif) receptor 8 …; assay: flow cytometry blocking, PBMC CCR8+ CD4+ cells; competitor PE-AB1 (its MFI is read)
Method: (§1) For blocking studies, 100 μL of the cell suspension were incubated with 10 μg purified isotype control, AB1, AB2, AB3, AB4, AB5, AB8, AB9, AB10, AB11, AB12, AB13, AB14, AB15, and Commercial ABI antibodies, or isotype control, as blocking agents.
(§2) After incubation with the blocking agent, the cells were incubated with 0.25 μg of the indicated PE-conjugated antibody plus anti-human CD4 APC or anti-human CD3 for another 15 minutes in the dark and then washed 2 times with Cell Staining Buffer, and acquired in a FACSCanto II flow cytometer (BD Biosciences); the data was analyzed using FCS Express (De Novo Software); MFI correspond to the CCR8+ CD4+ lymphocytes or CCR8+ CD3+ lymphocytes.
(§3) Percentage original MFI was calculated by dividing the MFI of samples blocked with AB1, AB2, AB3, AB4, AB5, AB6, AB7, AB8, AB9, AB10, AB11, AB12, AB13, AB14, AB15, and Commercial ABI antibodies, by the MFI of samples blocked with the corresponding isotype control. This value was subtracted from 100 to get a blocking percentage. The formula is shown below: […]

[3] = molecular target: T1, human chemokine (C-C motif) receptor 8 …; assay: flow cytometry blocking, PBMC CCR8+ CD4+ cells; competitor PE-AB2 (its MFI is read)
Method: as §1, §2, §3

[4] = molecular target: T1, human chemokine (C-C motif) receptor 8 …; assay: flow cytometry blocking, PBMC CCR8+ CD4+ cells; competitor PE-AB3 (its MFI is read)
Method: as §1, §2, §3

[5] = molecular target: T1, human chemokine (C-C motif) receptor 8 …; assay: flow cytometry blocking, PBMC CCR8+ CD4+ cells; competitor PE-AB4 (its MFI is read)
Method: as §1, §2, §3

[6] = molecular target: T1, human chemokine (C-C motif) receptor 8 …; assay: flow cytometry blocking, PBMC CCR8+ CD4+ cells; competitor PE-AB5 (its MFI is read)
Method: as §1, §2, §3

[7] = molecular target: T1, human chemokine (C-C motif) receptor 8 …; assay: flow cytometry blocking, PBMC CCR8+ CD4+ cells; competitor PE-AB6 (its MFI is read)
Method: as §1, §2, §3

[8] = molecular target: T1, human chemokine (C-C motif) receptor 8 …; assay: flow cytometry blocking, PBMC CCR8+ CD4+ cells; competitor PE-AB10 (its MFI is read)
Method: as §1, §2, §3

[9] = molecular target: T1, human chemokine (C-C motif) receptor 8 …; assay: flow cytometry blocking, PBMC CCR8+ CD4+ cells; competitor PE-AB11 (its MFI is read)
Method: as §1, §2, §3

[10] = molecular target: T1, human chemokine (C-C motif) receptor 8 …; assay: flow cytometry blocking, PBMC CCR8+ CD4+ cells; competitor PE-AB12 (its MFI is read)
Method: as §1, §2, §3

[11] = molecular target: T1, human chemokine (C-C motif) receptor 8 …; assay: flow cytometry blocking, PBMC CCR8+ CD4+ cells; competitor PE-AB13 (its MFI is read)
Method: as §1, §2, §3

[12] = molecular target: T1, human chemokine (C-C motif) receptor 8 …; assay: flow cytometry blocking, PBMC CCR8+ CD4+ cells; competitor PE-AB14 (its MFI is read)
Method: as §1, §2, §3

[13] = molecular target: T1, human chemokine (C-C motif) receptor 8 …; assay: flow cytometry blocking, PBMC CCR8+ CD4+ cells; competitor PE-AB15 (its MFI is read)
Method: as §1, §2, §3

[14] = molecular target: T1, human chemokine (C-C motif) receptor 8 …; assay: flow cytometry blocking, PBMC CCR8+ CD4+ cells; competitor PE-ABII (its MFI is read)
Method: as §1, §2, §3

T1 sequence (P51685 whole entry): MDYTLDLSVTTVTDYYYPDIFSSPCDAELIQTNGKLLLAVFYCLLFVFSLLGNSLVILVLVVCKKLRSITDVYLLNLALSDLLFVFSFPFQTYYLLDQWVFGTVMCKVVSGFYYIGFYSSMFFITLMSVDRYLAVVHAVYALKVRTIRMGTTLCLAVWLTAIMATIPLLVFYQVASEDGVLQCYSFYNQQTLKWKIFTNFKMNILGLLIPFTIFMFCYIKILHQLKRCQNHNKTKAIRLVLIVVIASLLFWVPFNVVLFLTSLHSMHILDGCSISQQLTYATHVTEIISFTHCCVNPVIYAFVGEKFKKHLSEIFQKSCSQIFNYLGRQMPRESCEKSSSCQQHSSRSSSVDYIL

B1: AB8 (antibody, V domains shown)
VH: AVQLVESGGGLVQPKESLKISCAASGFIFSNAAMYWVRQAPGKGLQWVARIRTKPKNYATYYIDSVKGRFTISRDDSKSMVYLQMDNLKTEDTAMYYCNTMGLTRAYYFDYWGQGVMVTVSS
VL: DIQMTQSPSFLSASVGDRVTINCKASQNINRYLNWYQQKLGEAPKLLIYNANSLQTGIPSRFSGSGSGTDFTLTIRSLQPEDVATYFCLQHNSWPWTFGGGTKLELK
notes: Hybridoma monoclonal; also called antibody 8; clone 8
- % hCCR8-Ba/F3 - THP-1 complexes [1]: 1.78%
- % Blocking [2]: -49.5%
- MFI [2]: 980
- % Blocking [3]: -42.4%
- MFI [3]: 953
- % Blocking [4]: -43.3%
- MFI [4]: 994
- % Blocking [5]: -40.9%
- MFI [5]: 962
- % Blocking [6]: -27.2%
- MFI [6]: 953
- % Blocking [7]: -20.4%
- MFI [7]: 944
- % Blocking [8]: -81.3%
- MFI [8]: 1830
- % Blocking [9]: 40.4%
- MFI [9]: 537
- % Blocking [10]: 20.8%
- MFI [10]: 773
- % Blocking [11]: 33.4%
- MFI [11]: 623
- % Blocking [12]: 6.78%
- MFI [12]: 826
- % Blocking [13]: -56.6%
- MFI [13]: 1240
- % Blocking [14]: 27%
- MFI [14]: 808

B2: AB2 (antibody, V domains shown)
VH: QVQLKESGPGLVKPSETLSLTCTVSGFSLTSYHISWVRQPPGKGLEWMGVIWGDGSKTYNSALKSRLSISRDTSKSQVFLKMRSLKTEDTATYYCARGGDSGFAYWGQGTLVTVSS
VL: DIQMTQSPASLSASLEEIVTITCQASQDIGNWLSWYQQKPGKSPQLLIYGTTNLADGVPSRFSGSRSGTQYSLKISRLQVEDIGIYYCLQAYSVPLTFGSGTKLEIK
notes: Hybridoma monoclonal; also called antibody 2; clone 2
- % hCCR8-Ba/F3 - THP-1 complexes [1]: 0.48%
- % Blocking [2]: 13.5%
- MFI [2]: 567
- % Blocking [3]: 26.7%
- MFI [3]: 491
- % Blocking [4]: 42.4%
- MFI [4]: 399
- % Blocking [5]: 16.2%
- MFI [5]: 572
- % Blocking [6]: 36.7%
- MFI [6]: 475
- % Blocking [7]: 45.9%
- MFI [7]: 424
- % Blocking [8]: -8.07%
- MFI [8]: 1090
- % Blocking [9]: -7.68%
- MFI [9]: 971
- % Blocking [10]: -9.94%
- MFI [10]: 1070
- % Blocking [11]: 8.25%
- MFI [11]: 859
- % Blocking [12]: 2.39%
- MFI [12]: 865
- % Blocking [13]: -7.83%
- MFI [13]: 855
- % Blocking [14]: 0.77%
- MFI [14]: 1100

B3: AB5 (antibody, V domains shown)
VH: QVQLKESGPGLVQPSQTLSLTCTVSGFSLTSYHVSWVRQPPGKGLEWMGVIWTGGSTTYNSLLKSRLSISRDISKSQVFLKMNSLQTEDTATYYCARGGTVVKGGFAYWGQGTLVTVSS
VL: B2 VL with W32R, T51A, N53S, V94T
notes: Hybridoma monoclonal; also called antibody 5; clone 5
- % hCCR8-Ba/F3 - THP-1 complexes [1]: 1.51%
- % Blocking [2]: 39.7%
- MFI [2]: 395
- % Blocking [3]: 47.1%
- MFI [3]: 355
- % Blocking [4]: 47.3%
- MFI [4]: 366
- % Blocking [5]: -6.8%
- MFI [5]: 729
- % Blocking [6]: 44.9%
- MFI [6]: 413
- % Blocking [7]: 35.7%
- MFI [7]: 504
- % Blocking [8]: -7.11%
- MFI [8]: 1080
- % Blocking [9]: -11.2%
- MFI [9]: 1000
- % Blocking [10]: -17.2%
- MFI [10]: 1140
- % Blocking [11]: -5.77%
- MFI [11]: 990
- % Blocking [12]: -4.39%
- MFI [12]: 925
- % Blocking [13]: -6.62%
- MFI [13]: 845
- % Blocking [14]: -8.53%
- MFI [14]: 1200

Other lines, results leading:

- % hCCR8-Ba/F3 - THP-1 complexes [1]: 1.16%
- % Blocking [2]: -41.5%
- MFI [2]: 927
- % Blocking [3]: -54.3%
- MFI [3]: 1030
- % Blocking [4]: -39.7%
- MFI [4]: 970
- % Blocking [5]: -42.8%
- MFI [5]: 975
- % Blocking [6]: -35.7%
- MFI [6]: 1020
- % Blocking [7]: -30.7%
- MFI [7]: 1020
- % Blocking [8]: -36.6%
- MFI [8]: 1380
- % Blocking [9]: 37.7%
- MFI [9]: 562
- % Blocking [10]: -0.1%
- MFI [10]: 977
- % Blocking [11]: 27.4%
- MFI [11]: 680
- % Blocking [12]: -413%
- MFI [12]: 4550
- % Blocking [13]: -15.9%
- MFI [13]: 919
- % Blocking [14]: 12.2%
- MFI [14]: 972
B4: AB13 (antibody, V domains shown)
VH: EVQLVETGGGLVQPKGSLKLSCAASGFTFNAYAMNWVRQAPGKGLEWVARIRTKSNNYATYYADSVKDRFTISRDDSQTMLYLQMNNLKTEDTAMYYCVRDRATVTTGRAMDYWGQGTSVTVSS
VL: DIVMTQAAPSLPVTPGESVSISCRSSKSLLHSNGNTYLYWFLQRAGQSPQLLIYRMSNLASGVPDRFSGSGSGTAFTLRISRVEAEDVGVYYCMQHLEYPFTFGSGTKLEIK
notes: Hybridoma monoclonal; also called antibody 13; clone 13

- % hCCR8-Ba/F3 - THP-1 complexes [1]: 1.07%
- % Blocking [2]: -51.8%
- MFI [2]: 995
- % Blocking [3]: -60.8%
- MFI [3]: 1080
- % Blocking [4]: -61.4%
- MFI [4]: 1120
- % Blocking [5]: -45.6%
- MFI [5]: 994
- % Blocking [6]: -29.4%
- MFI [6]: 970
- % Blocking [7]: -35.7%
- MFI [7]: 1060
- % Blocking [8]: 1.55%
- MFI [8]: 992
- % Blocking [9]: 20.9%
- MFI [9]: 713
- % Blocking [10]: 34.1%
- MFI [10]: 643
- % Blocking [11]: -3.67%
- MFI [11]: 971
- % Blocking [12]: 38.4%
- MFI [12]: 546
- % Blocking [13]: 19.4%
- MFI [13]: 639
- % Blocking [14]: -0.05%
- MFI [14]: 1110
B5: AB15 (antibody, V domains shown)
VH: EVQLVESGGGLVQPKGSLKLSCAASGFTFNTYAMNWVRQAPGKGLEWVARIRSKSNNYATYYVDSVKDRFTISRDDSQSMLYLQINNLKTEDTAMYYCVRGRELGPYSAMDYWGQGTSVTVSS
VL: B4 VL with L11V, A45P, V90L, S105G
notes: Hybridoma monoclonal; also called antibody 15; clone 15
